{"source": "patent US20150315289A1", "key": {"[1]": {"molecular_target": "human MUC5AC (native mucin) (human) (UniProt P98088)", "assay": "ELISA on target mucin antigen"}, "[2]": {"molecular_target": "human MUC5AC (native mucin) (human) (UniProt P98088)", "assay": "binding of radioiodinated TF10 to MUC5AC (not shown)"}, "[3]": {"molecular_target": "human MUC5AC (native mucin) (human) (UniProt P98088)", "assay": "elution analysis of 111In-IMP-288/TF10 with excess mucin"}, "[4]": {"molecular_target": "IMP-288 di-HSG hapten-peptide", "assay": "elution analysis of radiolabeled peptide with TF10 (not shown)"}, "[5]": {"molecular_target": "human MUC5AC (native mucin) (human) (UniProt P98088)", "assay": "inhibition EIA on CPM1-coated plates; competitor hPAM4 at […]"}, "[6]": {"molecular_target": "human MUC5AC (native mucin) (human) (UniProt P98088)", "assay": "sandwich EIA: hPAM4 capture of antigen from CPM1, murine MAb probe at 10 µg/mL"}}, "data": [{"substance": "PAM4-F(ab′)2", "values": [{"measurement": "EC50", "setting": "[1]", "value": 1.83, "unit": "nM"}]}, {"substance": "TF10 bispecific ([hPAM4]2 x h679) DNL construct (bispecific antibody)", "values": [{"measurement": "immunoreactive fraction", "setting": "[2]", "value": 87, "unit": "%"}, {"measurement": "percent of TF10-bound 111In-IMP-288 eluting at higher molecular weight with excess mucin", "setting": "[3]", "value": 92, "unit": "%"}, {"measurement": "percent of 111In-IMP-288 bound", "setting": "[4]", "value": 90, "unit": "%"}]}, {"substance": "45M1 anti-MUC5AC mouse monoclonal antibody", "values": [{"measurement": "ICmax (maximal inhibition)", "setting": "[5]", "value": 25.5, "unit": "%"}, {"measurement": "Kd", "setting": "[6]", "value": 14.3, "unit": "µg/mL"}]}]}
